For this experiment, the system named is p1. The experiment is described as follows: p1 copy number by p1-encoded mKate2 fluorescence. The experiment is classed as cell-based, S. cerevisiae. The conditions noted are these: OR-Y24, measured in triplicate. In outline:
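p1 copy number came from mKate2 fluorescence of saturated OR-Y24 cultures (triplicates, regrown from 1:10,000), read by flow cytometry and converted through a linear curve calibrated by qPCR (LEU2 against genomic LEU3). For small-scale tests, OD600-normalized plate-reader fluorescence (588/633 nm) was scaled to a w.t. TP-DNAP1 control.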

Substitutions are numbered along the chain they refer to. Names and notes keep the numbering of the source.

B1: S733R: TP-DNAP1 variant (protein)
chain: MDYKDKALNDLRNVYADFDSLPLDFRQILIKDRATLLQKEDVEKKILERQEDAKKYAEYLKQSEIPERISLPNIKRHKGVSISFEETSEDMVLEPRPFIFDGLNIRCFRRETIFSLKNKILNMVKESSSFKNVSRQSVSFMYFKIFNKGKVIASTKSVNIYEDKIDERLEDLCNNFDDVLKKIIDVTYGYESLFVSETYSYVIFYAKSIYFPQPRCVNNWGNNIPNILTFDSFKLFTANKNNVSCIKQCSRFLWQKDFNTLEEMIEYKNGNICIVTPQLHINDVRDIKSFNDIRLYSESPIKTFSVIDNTITYLFYFKEHLGVIFNITKSRHDRRVTKFSPLSKFSDVKNITVCFDIESYFDPEKESNQVNIPFICCASIIYNKVIGNIVDFEGRDCVAQMIEYVVDICGELNISSVELIAHNGGGYDFHYILSSMYNPAAIKNILIRNNSFISFNFAHDGVKFSVKDSYSFLLCSLANASKAFLNEETFKKTDFPHHDLKTADDLYKVYKEWSSVNTEINHVVEKEKLLITSEHIVNFTKNDKSKTLIEWSKDYCRNDVLVLSKVWLEFKNAVEDIFNCELVDQTMTLAGLSYKLFQANMPFDVELRHPNKEDYFNMREALIGGRCISVNGIYKDVLCLDVKSLYPASMAFYDQPYGSFKRVSSRPKDELGIYYVRVTPNRNNKSNFFPIRSHNKITYNNFEESTYIAWYTNVDIDIGLSEGHNIEYIPFDRYGNIGYSWSKKGKIFEKYIKDVLYKLKIKYEKQNNKVKRNVIKIIMNSLWGKFAQKWVNFEYFIKSEDDIDFESEEAYKIWDTDFMLIKKIKESTYSSKPIQNGVFTLSWARYHMKSIWDAGAKEGAECIYSDTDSIFVHKEHFKKNAKFMLNGLKVPIIGSEVGQLELECEFDKLLCAGKKQYMGFYTYFQDGKPCIKEKKRFKGIPSNYIIPELYAHLLSGADKEAKIQFLKFRREWGSVKGYIENKTVKAT
For the molecule B1, the “Mean fold-increase over w.t. (p1 copy number)” value (“Mean fold-increase” below) came to 1.98 fold.

B2: S733Q: TP-DNAP1 variant (protein)
chain: B1 chain with R733Q
For the molecule B2, the “Mean fold-increase” value is recorded as 1.86 fold.

B3: E298V: TP-DNAP1 variant (protein)
chain: B1 chain with E298V, R733S
As to B3, the “Mean fold-increase” value stood at 2.64 fold.

B4: K959A: TP-DNAP1 variant (protein)
chain: B1 chain with R733S, K959A
Turning to B4, the “Mean fold-increase” value came out at 1.55 fold.

B5: S831T: TP-DNAP1 variant (protein)
chain: B1 chain with R733S, S831T
Regarding B5, the “Mean fold-increase” value amounted to 1.71 fold.

B6: K962Q: TP-DNAP1 variant (protein)
chain: B1 chain with R733S, K962Q
As for B6, the “Mean fold-increase” value worked out at 1.56 fold.

B7: E298P: TP-DNAP1 variant (protein)
chain: B1 chain with E298P, R733S
Consider B7, for which the “Mean fold-increase” value amounted to 2.57 fold.

B8: E298Y: TP-DNAP1 variant (protein)
chain: B1 chain with E298Y, R733S
For B8, the “Mean fold-increase” value is reported as 2.17 fold.

B9: I301A: TP-DNAP1 variant (protein)
chain: B1 chain with I301A, R733S
With B9, the “Mean fold-increase” value is recorded as 2.41 fold.

B10: I301E: TP-DNAP1 variant (protein)
chain: B1 chain with I301E, R733S
B10: the “Mean fold-increase” value is listed as 2.57 fold.

B11: K959M: TP-DNAP1 variant (protein)
chain: B1 chain with R733S, K959M
Regarding B11, the “Mean fold-increase” value came out at 2.02 fold.

B12: I301V: TP-DNAP1 variant (protein)
chain: B1 chain with I301V, R733S
With B12, the “Mean fold-increase” value was 2.53 fold.

B13: I824E: TP-DNAP1 variant (protein)
chain: B1 chain with R733S, I824E
B13: the “Mean fold-increase” value was 2.12 fold.

B14: Y829F: TP-DNAP1 variant (protein)
chain: B1 chain with R733S, Y829F
As to B14, the “Mean fold-increase” value is 2.46 fold.

B15: Y829I: TP-DNAP1 variant (protein)
chain: B1 chain with R733S, Y829I
Turning to B15, the “Mean fold-increase” value is reported as 1.86 fold.

B16: S733N: TP-DNAP1 variant (protein)
chain: B1 chain with R733N
On to B16, for which the “Mean fold-increase” value is 1.86 fold.

B17: I301M: TP-DNAP1 variant (protein)
chain: B1 chain with I301M, R733S
For the molecule B17, the “Mean fold-increase” value is listed as 2.76 fold.

B18: S733E: TP-DNAP1 variant (protein)
chain: B1 chain with R733E
Take B18: the “Mean fold-increase” value stood at 2.06 fold.

B19: I301S: TP-DNAP1 variant (protein)
chain: B1 chain with I301S, R733S
For B19, the “Mean fold-increase” value turned out to be 2.29 fold.

B20: I301Y: TP-DNAP1 variant (protein)
chain: B1 chain with I301Y, R733S
Regarding B20, the “Mean fold-increase” value is reported as 3.28 fold.

B21: E298S: TP-DNAP1 variant (protein)
chain: B1 chain with E298S, R733S
As to B21, the “Mean fold-increase” value was determined as 2.43 fold.

B22: E298F: TP-DNAP1 variant (protein)
chain: B1 chain with E298F, R733S
For the molecule B22, the “Mean fold-increase” value amounted to 1.74 fold.

B23: I301L: TP-DNAP1 variant (protein)
chain: B1 chain with I301L, R733S
Take B23: the “Mean fold-increase” value amounted to 2.94 fold.

B24: I301C: TP-DNAP1 variant (protein)
chain: B1 chain with I301C, R733S
Regarding B24, the “Mean fold-increase” value came out at 2.46 fold.

B25: I301K: TP-DNAP1 variant (protein)
chain: B1 chain with I301K, R733S
As to B25, the “Mean fold-increase” value is reported as 2.71 fold.

For the origin of these results see patent publication US20230242902A1, “A HIGHLY ERROR-PRONE […] R[…] FOR TARGETED CONTINUOUS EVOLUTION IN VIVO” (The Regents of the University of California, priority 2017, published 2023).
